Target: large-conductance Ca2+-activated potassium (BK) channel pore-forming α subunit (rat (endogenous in cerebral artery …, UniProt Q62976 1-1209))
Assay: FRET or BRET

large-conductance Ca2+-activated potassium (BK) channel pore-forming α subunit (rat, sequence (Q62976 whole entry): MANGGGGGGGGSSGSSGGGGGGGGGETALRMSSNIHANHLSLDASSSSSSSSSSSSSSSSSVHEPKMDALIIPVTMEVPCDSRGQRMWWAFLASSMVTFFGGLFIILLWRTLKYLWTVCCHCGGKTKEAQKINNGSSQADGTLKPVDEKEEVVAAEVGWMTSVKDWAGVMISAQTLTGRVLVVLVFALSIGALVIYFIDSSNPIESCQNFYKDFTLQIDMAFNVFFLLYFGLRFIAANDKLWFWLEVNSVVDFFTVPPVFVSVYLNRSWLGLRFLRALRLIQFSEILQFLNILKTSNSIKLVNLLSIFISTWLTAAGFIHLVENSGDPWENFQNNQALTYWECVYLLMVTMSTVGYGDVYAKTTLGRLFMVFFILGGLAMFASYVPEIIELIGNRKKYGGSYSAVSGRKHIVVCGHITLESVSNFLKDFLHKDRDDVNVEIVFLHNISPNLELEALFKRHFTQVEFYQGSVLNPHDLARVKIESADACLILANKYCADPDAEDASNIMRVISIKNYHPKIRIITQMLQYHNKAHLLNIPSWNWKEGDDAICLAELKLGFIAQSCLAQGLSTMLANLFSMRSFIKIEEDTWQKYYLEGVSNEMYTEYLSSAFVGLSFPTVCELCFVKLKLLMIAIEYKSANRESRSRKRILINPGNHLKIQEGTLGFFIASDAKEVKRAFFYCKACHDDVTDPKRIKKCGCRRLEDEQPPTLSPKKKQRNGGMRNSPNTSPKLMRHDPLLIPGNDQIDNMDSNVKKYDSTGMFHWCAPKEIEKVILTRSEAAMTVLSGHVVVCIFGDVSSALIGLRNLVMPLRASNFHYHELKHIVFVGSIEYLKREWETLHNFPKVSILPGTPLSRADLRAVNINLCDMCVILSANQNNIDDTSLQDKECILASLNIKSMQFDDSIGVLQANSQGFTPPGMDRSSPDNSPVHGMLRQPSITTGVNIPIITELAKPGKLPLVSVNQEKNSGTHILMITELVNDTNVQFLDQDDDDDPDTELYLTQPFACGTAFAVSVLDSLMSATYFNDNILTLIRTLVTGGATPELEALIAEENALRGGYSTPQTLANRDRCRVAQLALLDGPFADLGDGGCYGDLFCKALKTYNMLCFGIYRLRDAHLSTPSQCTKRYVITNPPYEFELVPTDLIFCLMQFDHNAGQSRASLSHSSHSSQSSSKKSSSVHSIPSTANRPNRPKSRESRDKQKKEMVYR

fold increase of normalized FRET, 60 mM K+ against 6 mM K+: ~3.4 fold
B1: BK channel auxiliary β1 subunit (natural protein, UniProt P97678 1-191, looked up)
chain: MGKKLVMAQKRGETRALCLGVAMVVCAAITYYILGTTVLPLYQKSVWTQESTCHLVETNIKDQEELEGRKVPQYPCLWVNVSAVGRWAMLYHTEDTRDQNQQCSYIPRNLDNYQTALVDVKKVRANFYKHHNFYCFSAPQVNETSVVYQRLYGPQILLFSFFWPTFLLTGGLLIIAMVKLNRSLSVLAAQK
